Test results as given in patent US20220112288A1 (published 2022).
Where a chain is given by its changes, count along the chain named. Blank lines part the entries; values can stand above or below the binder they belong to.

Key:
[1] = biological target: T1, Recombinant human CD4 (R&D Systems, Cat. 10327-CD) (human, UniProt P01730 26-390, limits assumed); assay: BLI Octet, non-clonal supernatant on AMC sensor, 100 nM human CD4;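 further: hybridoma supernatants diluted 1:3, antibodies captured on AMC biosensors, association and dissociation with CD4 followed, curves smoothed and fit locally with 1:1 binding model for single-point kinetics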
T1 construct: Bought reagent; also called huCD4

[2] = biological target: T1, Recombinant human CD4 (R&D Systems, …); assay: BLI Octet, non-clonal supernatant on AMC sensor, 100 nM human CD4, 1:1 local fit;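 further: Single-concentration kinetics per supernatant, with the 1:1 model fitted across both the association and dissociation phases of the sensorgram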

B1: 75110_01E08A (antibody, V domains shown)
VH: EVQLVESGGGLVQPGGSLRLSCAASGFTFNNYDMHWVRQATGKGLEWVSTIGTAGDTYYPASVKGRFTIYRENAKNSLYLQMNSLRAGDTAVYYCARGGDYYYGMDVWGQGTTVTVSS
VL: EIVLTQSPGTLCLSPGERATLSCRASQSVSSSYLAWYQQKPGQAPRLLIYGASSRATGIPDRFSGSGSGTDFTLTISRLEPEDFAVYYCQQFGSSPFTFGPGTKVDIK
notes: Tested as non-clonal AlivaMab Mouse Kappa hybridoma supernatant, captured by anti-mouse IgG Fc sensor
Response [1]: 0.1
Kd [2]: 10 nM
koff [2]: 0.0014 s⁻¹
kon [2]: 140000 M⁻¹ s⁻¹

B2: 75110_10L22A (antibody, V domains shown)
VH: B1 VH with N30S, N31S, A61G, Y70S, S84G, G99N, D100Y, Y101F, M105V
VL: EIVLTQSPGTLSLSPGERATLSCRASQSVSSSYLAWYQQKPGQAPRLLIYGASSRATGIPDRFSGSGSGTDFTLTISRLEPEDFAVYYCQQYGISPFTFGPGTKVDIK
notes: as for B1
Response [1]: 0.113
Kd [2]: 117 nM
koff [2]: 0.0065 s⁻¹
kon [2]: 55700 M⁻¹ s⁻¹

B5: 75110_11D03A (antibody, V domains shown)
VH: EVQLVESGGGLVQPGGSLRLSCAASGFTFSSYWMSWVRQAPGKGLEWVANINQDGNEKYYVDSVKGRFTISRDNAKNSLFLQMNSLRAEDTAVYYCAREGGQWLALDYWGQGALVTVSS
VL: DIQMTQSPSSVSASVGDRVTITCRASQGISSWLAWYQQKPGKAPKFLISGASSLQSGVPSRFSGSGSGTDFTLTISSLQPEDFATYYCQQANSFPWTFGQGTKVEIK
notes: as for B1
Response [1]: 0.177
Kd [2]: 4.67 nM
koff [2]: 0.000524 s⁻¹
kon [2]: 112000 M⁻¹ s⁻¹

B7: 75110_01J09A (antibody, V domains shown)
VH: B5 VH with A23V, I51T, N52K, Q53E, N56S, E57D, S71C, F80Y, A113T
VL: B5 VL with T22N, K45N, F46L, S49F, S67F, T72S, S76T, S77T, Y87H
notes: as for B1
Response [1]: 0.28
Kd [2]: 11 nM
koff [2]: 0.0013 s⁻¹
kon [2]: 120000 M⁻¹ s⁻¹

B10: 75110_05L07A (antibody, V domains shown)
VH: B5 VH with N56S, E57D, A75V, F80Y, M83I, A105T, A113T
VL: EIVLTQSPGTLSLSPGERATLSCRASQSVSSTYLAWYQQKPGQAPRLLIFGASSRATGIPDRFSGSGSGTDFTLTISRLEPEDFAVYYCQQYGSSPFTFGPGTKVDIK
notes: as for B1
Response [1]: 0.12
Kd [2]: 13 nM
koff [2]: 0.0014 s⁻¹
kon [2]: 100000 M⁻¹ s⁻¹

B11: 75110_03L12A (antibody, V domains shown)
VH: QVQLQQWGAGLLKPSETLSLTCAVYGGSFSGYYWSWIRQPPGKGLEWIGEINHSGSTNYNPSLKSRVTISVDTSENQFSLTLISVTAADTAVYYCVRLINWFDPWGQGTLVTVSS
VL: B5 VL with G28D, S31N, F46L, S49F, G50A, E81D, W96Y, K103N, V104L, E105G
notes: as for B1
Response [1]: 0.21
Kd [2]: 2.8 nM
koff [2]: 0.00048 s⁻¹
kon [2]: 170000 M⁻¹ s⁻¹

B13: 75110_03C01A (antibody, V domains shown)
VH: B11 VH with P40S, H53Q, E75K, N76D, T81K, I83S, V96A, L98V, P104S, T109S
VL: B5 VL with K42N, F46L, S49Y, G50D, L54F, P80T, W96Y, V104L
notes: as for B1
Response [1]: 0.09
Kd [2]: < 0.001 nM
koff [2]: < 1e-07 s⁻¹
kon [2]: 150000 M⁻¹ s⁻¹

B14: 75110_02N15A (antibody, V domains shown)
VH: B5 VH with Q53E, Y95F, Y108H
VL: B5 VL with I106F
notes: as for B1
Response [1]: 0.16
Kd [2]: 6.7 nM
koff [2]: 0.00069 s⁻¹
kon [2]: 100000 M⁻¹ s⁻¹

B16: 75110_12H17A (antibody, V domains shown)
VH: B5 VH with S31D, N52K, Q53E
VL: B5 VL with S63T
notes: as for B1
Response [1]: 0.09
Kd [2]: 9.6 nM
koff [2]: 0.0032 s⁻¹
kon [2]: 330000 M⁻¹ s⁻¹

B17: 75110_04K10A (antibody, V domains shown)
VH: B5 VH with N56S, F80Y, M83L, V93M, A105S, A113T
VL: B5 VL with F46V, S49Y, A51V, L54F, T72I
notes: as for B1
Response [1]: 0.23
Kd [2]: 6.3 nM
koff [2]: 0.0018 s⁻¹
kon [2]: 290000 M⁻¹ s⁻¹

B18: 75110_09N20A (antibody, V domains shown)
VH: B5 VH with Q53E, N56S, F80Y, A97V, A113T
VL: B5 VL with F46L, S49Y, G50A, R61S, S76N, E105A
notes: as for B1
Response [1]: 0.13
Kd [2]: 15 nM
koff [2]: 0.0019 s⁻¹
kon [2]: 130000 M⁻¹ s⁻¹

B21: 75110_01A06A (antibody, V domains shown)
VH: B5 VH with Q53E, F68L, F80Y, Y95F, A105S
VL: B5 VL with T20S, F46I, S49Y
notes: as for B1
Response [1]: 0.28
Kd [2]: 11 nM
koff [2]: 0.0013 s⁻¹
kon [2]: 120000 M⁻¹ s⁻¹

B23: 75110_09G15A (antibody, V domains shown)
VH: B5 VH with S31D, N56S, Y60S, F80Y, V93I, Y94F, A113T
VL: B5 VL with F46L, S49Y, S76N, A84T, S93I
notes: as for B1
Response [1]: 0.1
Kd [2]: 290 nM
koff [2]: 0.011 s⁻¹
kon [2]: 37000 M⁻¹ s⁻¹

B26: 75110_12K21A (antibody, V domains shown)
VH: B11 VH with Y25S, Y59C, E75N, T81K, I83S, V96A, L98V, I99L, W101Y, P104Y
VL: DIQMTQSPSSVSASVGDRVTITCRASPDIANWLAWYQQKPGKAPELLIYAASSLQSGVPSRFSGSGSGTDFTLTISSLQPEDFATYFCQQANSFPLTFGGGTKVESK
notes: as for B1
Response [1]: 0.26
Kd [2]: 3 nM
koff [2]: 0.0006 s⁻¹
kon [2]: 200000 M⁻¹ s⁻¹

Next, values leading:

Response [1]: 0.14
Kd [2]: 5.2 nM
koff [2]: 0.0012 s⁻¹
kon [2]: 230000 M⁻¹ s⁻¹
B3: 75110_04B08A (antibody, V domains shown)
VH: QVQLVESGGGVVQPGRSLRLSCTASGFNFINYGIHWVRQAPGKGLEWVTIIWYDGSKKYYADSVKGRFAISRDNSKNTLYLQMNSLRAEDTAVYYCAREDDWNDGLAYWGQGTLVTVSS
VL: AIQMTQSPSSLSASVGDRVTITCRASQDIRNDLGWYQQKPGKAPNLLIYAASNLQSGVPSRFSGSGSGTDFTLTISSLQPEDFATYYCLQDSNYPRTFGQGTKVEIK
notes: as for B1

Response [1]: 0.08
Kd [2]: 1.5 nM
koff [2]: 0.00051 s⁻¹
kon [2]: 330000 M⁻¹ s⁻¹
B4: 75110_02E08A (antibody, V domains shown)
VH: QVQLQESGPGLVKPSETLSLTCTVSGGSISTYYWTWIRQPAGKGLEWIGRVYTSGDTNYNPSLKSRVAMSLDTSKNQFSLKLSSVTAADTAVYYCARDSGALYSWNYGDAFDIWGQGTMVTVSS
VL: DIQMTQSPSAMSASVGDRVTITCRASQDISNYLAWFQQKPGKVPKRLIYAASSLQSGVPSRFSGSGSGTEFTLTISSLQPEDFATYYCLQHNSYPRTFGQGTKVEIK
notes: as for B1

Response [1]: 0.09
Kd [2]: 2.5 nM
koff [2]: 0.00047 s⁻¹
kon [2]: 190000 M⁻¹ s⁻¹
B6: 75110_06D16A (antibody, V domains shown)
VH: B11 VH with D72V, E75K, T81K, I83S, V96A, L98V, I99L
VL: B26 VL with P27Q, N31D, E45K, L54F, L96Y, G100Q, V104L, S106I
notes: as for B1

Response [1]: 0.03
Kd [2]: < 0.001 nM
koff [2]: < 1e-07 s⁻¹
kon [2]: 200000 M⁻¹ s⁻¹
B8: 75110_05B13A (antibody, V domains shown)
VH: QVLLEQWGAGLLKPSETLSLTCAVYGGSFSGYYWTWIRQPPGKGLEWIGEINHRGSTNYNPSLKSRVTISIDTSKNQFSLKVKSVTAADTAMYYCTRPDSNWFDPWGQGTLVTVSS
VL: B26 VL with P27Q, A30S, E45K, Y49F, F87Y, S106I
notes: as for B1

Response [1]: 0.17
Kd [2]: 1.8 nM
koff [2]: 0.00022 s⁻¹
kon [2]: 120000 M⁻¹ s⁻¹
B9: 75110_04P08A (antibody, V domains shown)
VH: QVQLQQWGAGLLKPSETLSLTCAVYGGSLSGYYWSWIRQSPGKGLEWIGEINQSGSTNYNPSLKSRVTISVDTSKDQFSLRLTSVTAADTAVYYCTRVLNWFDPWGRGTLVTVSS
VL: B5 VL with I21L, G28D, S31N, F46L, S49Y, G50A, P80T, W96Y, V104L
notes: as for B1

Response [1]: 0.24
Kd [2]: 0.68 nM
koff [2]: 0.00013 s⁻¹
kon [2]: 190000 M⁻¹ s⁻¹
B12: 75110_13P22A (antibody, V domains shown)
VH: QVQLQQWGAGLLKPSETLSLTCAAYGGSFSGYYWSWIRQSPGKGLEWIGEINQSGNTNYNPSLKSRVTISADTSKNQFSLKLSSVTAADTAVYYCARVLNWFDYWGQGILVTVSS
VL: B5 VL with S31D, P40S, K45D, F46L, S49F, G50A, W96Y, V104L
notes: as for B1

Response [1]: 0.21
Kd [2]: 0.79 nM
koff [2]: 0.00013 s⁻¹
kon [2]: 160000 M⁻¹ s⁻¹
B15: 75110_07B16A (antibody, V domains shown)
VH: B12 VH with A24V, N56S, A71V, N76D, L99I, Y104S, I109S
VL: B5 VL with F46L, S49Y, G50D, L54F, P80T, E81D, W96Y, V104L
notes: as for B1

Response [1]: 0.09
Kd [2]: 4.2 nM
koff [2]: 0.0012 s⁻¹
kon [2]: 290000 M⁻¹ s⁻¹
B19: 75110_12H19A (antibody, V domains shown)
VH: B5 VH with K43Q, Q53E, Y60H, F68L, F80Y, A88G, E89V, Y95F
VL: B5 VL with T20S, F46L, S49Y, S53G
notes: as for B1

Response [1]: 0.26
Kd [2]: 1.1 nM
koff [2]: 0.00013 s⁻¹
kon [2]: 110000 M⁻¹ s⁻¹
B20: 75110_01D24A (antibody, V domains shown)
VH: B11 VH with T81K, I83N, V96A, I99V
VL: EIQMTQSPSSVSASVGDRVTITCRASQDISNWLAWYQQKPGKAPNLLIFAASSLQTGVPSRFSGSGSGTDFTLTISSLQPDDFATYYCQQANSFPYSFGQGTNLGIK
notes: as for B1

Response [1]: 0.25
Kd [2]: 6 nM
koff [2]: 0.0013 s⁻¹
kon [2]: 220000 M⁻¹ s⁻¹
B22: 75110_03D16A (antibody, V domains shown)
VH: B5 VH with N56G, F80Y, A97V, A113T
VL: B5 VL with A34T, S49Y, G50A, S67F
notes: as for B1

Response [1]: 0.106
Kd [2]: 0.627 nM
koff [2]: 9.63e-05 s⁻¹
kon [2]: 154000 M⁻¹ s⁻¹
B24: 75110_12C19A (antibody, V domains shown)
VH: B5 VH with N52K, Q53E, N56S, E57D, F80Y, Y94H, A97V, A113T
VL: B5 VL with A13G, F46L, S49Y, A84V
notes: as for B1

Response [1]: 0.2
Kd [2]: 3.1 nM
koff [2]: 0.00035 s⁻¹
kon [2]: 110000 M⁻¹ s⁻¹
B25: 75110_07H07A (antibody, V domains shown)
VH: B5 VH with L4V, N52K, Q53E, D54E, N56S, F80Y, A97V, A113T
VL: B5 VL with A13G, F46L, S49F, E105Q
notes: as for B1

Response [1]: 0.12
Kd [2]: 2.04 nM
koff [2]: 0.000315 s⁻¹
kon [2]: 154000 M⁻¹ s⁻¹
B27: 75110_13P21A (antibody, V domains shown)
VH: B12 VH with A24V, Y25S, S40P, Q53H, N56S, Y59C, A71V, K75N, W101Y, I109T
VL: B26 VL
notes: as for B1

Response [1]: 0.19
Kd [2]: 3.2 nM
koff [2]: 0.00051 s⁻¹
kon [2]: 160000 M⁻¹ s⁻¹
B28: 75110_13C13A (antibody, V domains shown)
VH: B12 VH with A24V, Y25S, S40P, Q53H, N56S, Y59C, A71V, V92M, W101F, I109T
VL: B26 VL with S7T, D28G, A30S
notes: as for B1
